In US11840557B2, “Wnt7 variants capable of activating g-protein coupled receptor (Gpr)124/Reck/frizzled/lipoprotein receptor-related protein (LRP)-mediated Wnt signaling” (UNIVERSITÉ LIBRE DE BRUXELLES, priority 2018, dated 2023):

How the values were obtained:
[1] = molecular target: T1, Gpr124/Reck/Fz/LRP (UniProt O70421+O95980); assay: STF dual luciferase assay, Gpr124/Reck-dependent signaling in HEK293-STF cells; assay type: cell-based; settings: Gpr124, RECK and Fz1 transfection
T1 construct: host or cells: HEK293-STF cells
Method: Cells were plated into 96-well plates and transfected after 24 h in triplicate with Lipofectamine 2000 (Life Technologies, Carlsbad, Calif.). The amount of plasmid DNA transfected per well was optimized for each expression vector: Renilla luciferase (0.5 ng) (was kindly provided by Jeremy Nathans (John Hopkins)), Wnt ligands (20 ng), Fz receptors (5 ng), Lrp (2.5 ng), Gpr124 (10 ng), Reck (5 ng) and Dkk-1 (10 ng) unless otherwise indicated. The total amount of DNA was adjusted to 100 ng per well with the empty pCS2 vector. Dual luciferase assays were performed using the STF cell line or by co-transfecting 20 ng of M50 Super 8× TOPFlash plasmid (Addgene plasmid #12456). Cells were harvested in passive lysis buffer (E1960, Promega, Wis.) and the activities of the Firefly and Renilla luciferases were measured sequentially using the Dual-Luciferase Reporter Assay system (E1960, Promega, Madison, Wis.) 48 h post-transfection. […] Luciferase activity was measured 24 h after co-culture.
Cells were plated into 96-well plates and transfected after 24 h in triplicate with Lipofectamine 2000 (Invitrogen, Carlsbad, Calif.). […] Cells were harvested in passive lysis buffer (E1960, Promega, Wisconsin) and the activities of the Firefly and Renilla luciferases were measured sequentially using the Dual-Luciferase Reporter Assay system (E1960, Promega, Madison, Wis.) 48 h post-transfection.

[2] = system: all 10 Fz genes; assay: STF luciferase assay after co-transfection with all 10 Fz genes, no Gpr124/Reck; assay type: cell-based; settings: in the absence of Gpr124/Reck
Method: Cells were plated into 96-well plates and transfected after 24 h in triplicate with Lipofectamine 2000 (Invitrogen, Carlsbad, Calif.). The amount of plasmid DNA transfected per well was optimized for each expression vector: Renilla luciferase (0.5 ng), Wnt (20 ng), Fz (5 ng), LRP (2.5 ng), Gpr124 (10 ng), Reck (10 ng) unless otherwise indicated. The total amount of DNA was adjusted to 100 ng per well with the empty pCS2 vector. Cells were harvested in passive lysis buffer (E1960, Promega, Wisconsin) and the activities of the Firefly and Renilla luciferases were measured sequentially using the Dual-Luciferase Reporter Assay system (E1960, Promega, Madison, Wis.) 48 h post-transfection.

[3] = system: zebrafish zygote; assay type: in vivo, Danio rerio; settings: injection in zygote, 3 dpf larvae
Method: (§1) The following splice-blocking morpholino (MOs) (GeneTools, Eugene, OR) were injected into embryos at the one-cell stage: wnt7aa ([…], 6 ng) (SEQ ID NO.: 123). Synthetic mRNAs were transcribed from pCS2 plasmids after NotI digestion using the mMessage mMachine SP6 Kit (Ambion, Carlsbad, CA) and injected into one-cell stage zebrafish embryo. For Xenopus laevis microinjection, 15 pg of wnt7a or wnt7a^K190A or wnt7a^1-278 mRNA were injected into one ventral blastomere of the four-cell stage embryo.
(§2) zebrafish embryos were imaged with an LSM710 confocal microscope and images were processed in ImageJ. Images of zebrafish development phenotypes were taken on Leica M165 FC. Xenopus larvae were imaged with an Olympus SZX16.

[4] = system: wnt7aa morphants; assay: Trunk DRG rescue in wnt7aa morphant zebrafish larvae; assay type: in vivo, Danio rerio; settings: 100 pg mRNA injection, 72 hpf
Method: Zebrafish (Danio rerio) were raised and handled under standard conditions following the rules of the State of Belgium (protocol approval number: CEBEA-IBMM-2017-22:65). The following line was used: Tg(−17.0neurog1:EGFP)^w61 (McGraw et al., J. Neurosci 28(47):12558-69 (2008)).
as §1, §2

T1 sequence (O95980 23-942 limits assumed): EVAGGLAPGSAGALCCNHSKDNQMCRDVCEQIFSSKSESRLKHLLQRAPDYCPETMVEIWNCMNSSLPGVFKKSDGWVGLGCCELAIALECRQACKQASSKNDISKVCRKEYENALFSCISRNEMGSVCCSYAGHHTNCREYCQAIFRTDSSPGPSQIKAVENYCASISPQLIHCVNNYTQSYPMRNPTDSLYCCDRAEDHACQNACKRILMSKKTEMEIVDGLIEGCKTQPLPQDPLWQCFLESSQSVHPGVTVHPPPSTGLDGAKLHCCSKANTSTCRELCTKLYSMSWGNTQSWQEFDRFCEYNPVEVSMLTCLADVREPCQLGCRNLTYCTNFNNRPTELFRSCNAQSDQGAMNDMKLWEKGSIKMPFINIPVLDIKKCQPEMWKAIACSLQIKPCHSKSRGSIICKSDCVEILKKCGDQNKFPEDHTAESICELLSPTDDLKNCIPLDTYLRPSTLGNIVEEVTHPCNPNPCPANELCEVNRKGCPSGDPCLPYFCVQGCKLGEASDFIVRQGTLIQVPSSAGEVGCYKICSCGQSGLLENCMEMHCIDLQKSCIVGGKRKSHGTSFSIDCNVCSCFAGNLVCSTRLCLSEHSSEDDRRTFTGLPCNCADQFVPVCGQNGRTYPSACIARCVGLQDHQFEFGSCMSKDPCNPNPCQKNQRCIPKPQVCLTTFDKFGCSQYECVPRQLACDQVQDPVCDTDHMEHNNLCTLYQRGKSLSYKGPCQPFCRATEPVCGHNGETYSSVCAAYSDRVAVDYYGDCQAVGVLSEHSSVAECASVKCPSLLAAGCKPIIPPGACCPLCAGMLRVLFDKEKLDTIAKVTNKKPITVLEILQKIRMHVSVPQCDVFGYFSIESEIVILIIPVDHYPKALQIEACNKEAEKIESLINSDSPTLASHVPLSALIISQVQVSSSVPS
T1 sequence (O70421 69-642): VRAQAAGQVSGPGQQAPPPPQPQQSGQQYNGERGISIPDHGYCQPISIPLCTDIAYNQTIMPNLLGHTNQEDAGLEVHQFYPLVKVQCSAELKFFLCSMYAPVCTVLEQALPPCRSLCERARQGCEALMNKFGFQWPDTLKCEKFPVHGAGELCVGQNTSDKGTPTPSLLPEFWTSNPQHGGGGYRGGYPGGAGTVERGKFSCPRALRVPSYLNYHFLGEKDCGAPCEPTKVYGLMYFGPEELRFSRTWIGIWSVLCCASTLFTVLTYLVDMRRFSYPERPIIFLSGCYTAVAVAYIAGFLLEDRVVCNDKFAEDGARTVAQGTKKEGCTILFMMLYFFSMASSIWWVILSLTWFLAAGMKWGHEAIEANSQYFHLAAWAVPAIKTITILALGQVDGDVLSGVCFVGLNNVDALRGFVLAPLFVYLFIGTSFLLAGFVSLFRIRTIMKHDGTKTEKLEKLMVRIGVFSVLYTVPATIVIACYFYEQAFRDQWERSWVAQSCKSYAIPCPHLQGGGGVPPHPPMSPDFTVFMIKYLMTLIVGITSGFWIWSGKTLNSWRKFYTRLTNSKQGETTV
T1 sequence (Q96PE1 34-1338 partner): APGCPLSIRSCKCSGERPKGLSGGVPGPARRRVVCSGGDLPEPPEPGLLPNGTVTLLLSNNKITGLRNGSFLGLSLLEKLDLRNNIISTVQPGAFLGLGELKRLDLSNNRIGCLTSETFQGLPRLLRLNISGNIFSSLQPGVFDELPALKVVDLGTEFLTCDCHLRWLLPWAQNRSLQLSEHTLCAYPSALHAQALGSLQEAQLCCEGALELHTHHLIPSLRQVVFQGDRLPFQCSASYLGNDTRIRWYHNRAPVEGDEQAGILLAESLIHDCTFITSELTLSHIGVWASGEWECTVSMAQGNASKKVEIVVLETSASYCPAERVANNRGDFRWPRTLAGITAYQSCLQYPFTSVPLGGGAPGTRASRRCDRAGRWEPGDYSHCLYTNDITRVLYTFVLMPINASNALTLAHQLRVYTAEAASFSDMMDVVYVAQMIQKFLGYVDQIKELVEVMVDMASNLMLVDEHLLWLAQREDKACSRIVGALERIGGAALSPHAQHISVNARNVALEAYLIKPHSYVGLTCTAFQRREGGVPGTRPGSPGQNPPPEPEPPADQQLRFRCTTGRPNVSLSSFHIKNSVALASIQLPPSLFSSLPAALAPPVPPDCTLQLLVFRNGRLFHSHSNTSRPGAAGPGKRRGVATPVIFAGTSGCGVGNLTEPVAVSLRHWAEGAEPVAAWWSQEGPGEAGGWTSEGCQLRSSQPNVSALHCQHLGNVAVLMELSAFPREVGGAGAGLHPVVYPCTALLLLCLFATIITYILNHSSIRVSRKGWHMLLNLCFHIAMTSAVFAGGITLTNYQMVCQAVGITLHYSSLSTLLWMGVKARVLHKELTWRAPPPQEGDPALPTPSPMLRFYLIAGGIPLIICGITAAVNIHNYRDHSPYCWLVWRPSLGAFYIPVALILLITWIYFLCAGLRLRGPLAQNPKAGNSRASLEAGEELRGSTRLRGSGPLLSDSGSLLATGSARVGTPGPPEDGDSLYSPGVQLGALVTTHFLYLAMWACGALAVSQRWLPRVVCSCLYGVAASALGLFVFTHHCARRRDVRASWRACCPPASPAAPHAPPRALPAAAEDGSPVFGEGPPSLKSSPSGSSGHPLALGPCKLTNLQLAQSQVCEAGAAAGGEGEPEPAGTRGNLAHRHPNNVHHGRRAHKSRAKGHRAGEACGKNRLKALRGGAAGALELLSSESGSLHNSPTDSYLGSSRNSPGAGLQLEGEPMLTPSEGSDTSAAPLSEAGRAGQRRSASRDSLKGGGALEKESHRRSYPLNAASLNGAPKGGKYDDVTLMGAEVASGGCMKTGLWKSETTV
T1 sequence (O75581 20-1613 partner): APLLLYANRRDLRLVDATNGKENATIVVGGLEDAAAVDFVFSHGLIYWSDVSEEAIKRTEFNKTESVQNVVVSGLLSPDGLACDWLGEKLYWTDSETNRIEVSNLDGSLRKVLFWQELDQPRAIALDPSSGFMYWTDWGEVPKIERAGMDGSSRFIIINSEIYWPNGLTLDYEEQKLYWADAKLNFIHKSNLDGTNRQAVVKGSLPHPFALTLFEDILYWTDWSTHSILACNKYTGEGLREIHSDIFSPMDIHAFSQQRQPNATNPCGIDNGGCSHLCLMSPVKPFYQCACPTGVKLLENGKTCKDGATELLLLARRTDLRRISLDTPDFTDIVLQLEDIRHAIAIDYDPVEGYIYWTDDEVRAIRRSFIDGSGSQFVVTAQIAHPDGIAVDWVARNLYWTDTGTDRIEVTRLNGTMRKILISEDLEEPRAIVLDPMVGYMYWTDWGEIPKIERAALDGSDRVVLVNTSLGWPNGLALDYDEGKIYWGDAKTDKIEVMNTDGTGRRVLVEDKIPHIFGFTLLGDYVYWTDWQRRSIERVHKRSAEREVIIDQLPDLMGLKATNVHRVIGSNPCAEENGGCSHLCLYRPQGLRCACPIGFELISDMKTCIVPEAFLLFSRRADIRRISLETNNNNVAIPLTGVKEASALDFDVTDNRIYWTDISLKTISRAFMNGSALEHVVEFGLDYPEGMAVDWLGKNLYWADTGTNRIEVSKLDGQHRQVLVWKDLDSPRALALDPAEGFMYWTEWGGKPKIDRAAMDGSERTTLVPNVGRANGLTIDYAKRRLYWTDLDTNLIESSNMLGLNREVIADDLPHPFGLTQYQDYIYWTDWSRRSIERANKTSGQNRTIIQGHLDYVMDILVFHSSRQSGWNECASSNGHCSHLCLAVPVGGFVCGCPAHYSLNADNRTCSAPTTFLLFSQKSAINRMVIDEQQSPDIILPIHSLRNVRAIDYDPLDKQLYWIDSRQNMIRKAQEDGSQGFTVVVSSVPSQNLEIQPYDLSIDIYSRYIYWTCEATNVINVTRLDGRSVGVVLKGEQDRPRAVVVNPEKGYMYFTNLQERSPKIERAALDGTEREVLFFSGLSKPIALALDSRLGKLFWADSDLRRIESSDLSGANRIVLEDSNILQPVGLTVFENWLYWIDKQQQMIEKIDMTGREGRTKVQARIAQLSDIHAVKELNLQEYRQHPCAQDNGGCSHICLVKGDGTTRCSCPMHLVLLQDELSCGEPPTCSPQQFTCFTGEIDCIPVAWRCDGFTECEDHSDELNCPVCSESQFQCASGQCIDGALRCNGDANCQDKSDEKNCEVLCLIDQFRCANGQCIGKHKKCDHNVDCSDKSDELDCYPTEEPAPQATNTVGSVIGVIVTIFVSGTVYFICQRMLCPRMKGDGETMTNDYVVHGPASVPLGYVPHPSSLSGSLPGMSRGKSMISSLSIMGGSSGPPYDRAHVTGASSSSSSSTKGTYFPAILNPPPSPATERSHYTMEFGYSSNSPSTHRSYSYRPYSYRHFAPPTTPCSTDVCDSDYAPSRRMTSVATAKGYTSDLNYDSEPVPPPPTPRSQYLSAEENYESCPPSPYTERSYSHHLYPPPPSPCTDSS

B1: Wnt7a^1-278: the N-terminal domain of Wnt7a, single domain truncated variant (protein)
chain: LGASIICNKIPGLAPRQRAICQSRPDAIIVIGEGSQMGLDECQFQFRNGRWNCSALGERTVFGKELKVGSREAAFTYAIIAAGVAHAITAACTQGNLSDCGCDKEKQGQYHRDEGWKWGGCSADIRYGIGFAKVFVDAREIKQNARTLMNLHNNEAGRKILEENMKLECKCHGVSGSCTTKTCWTTLPQFRELGYVLKDKYNEAVHVEPVRASRNKRPTFLKIKKPLSYRKPMDTDLVYIEKSPNYC
modifications: left off: small tags and cut ends
notes: the N-terminal domain of Wnt7a, single domain truncated variant
- signaling capacity via Gpr124/Reck/Fz1 [1]: ~40%
- signaling through any Fz [2]: failed to signal through any Fz
- mRNA dose well tolerated without posteriorizing or gross anatomical alterations [3]: up to 1 ng
- DRG rescue [4]: significant DRG rescues
